# Source: doi:10.1101/197186 (bioRxiv, 2017)
# B1: human MORC2(1-603) S87L (domain or fragment)
# chain: MAFTNYSSLNRAQLTFEYLHTNSTTHEFLFGALAELVDNARDADATRIDIYAERREDLRGGFMLCFLDDGAGMDPSDAASVIQFGKLAKRTPESTQIGQYGNGLKSGSMRIGKDFILFTKKEDTMTCLFLSRTFHEEEGIDEVIVPLPTWNARTREPVTDNVEKFAIETELIYKYSPFRTEEEVMTQFMKIPGDSGTLVIIFNLKLMDNGEPELDIISNPRDIQMAETSPEGTKPERRSFRAYAAVLYIDPRMRIFIHGHKVQTKRLSCCLYKPRMYKYTSSRFKTRAEQEVKKAEHVARIAEEKAREAESKARTLEVRLGGDLTRDSRVMLRQVQNRAITLRREADVKKRIKEAKQRALKEPKELNFVFGVNIEHRDLDGMFIYNCSRLIKMYEKVGPQLEGGMACGGVVGVVDVPYLVLEPTHNKQDFADAKEYRHLLRAMGEHLAQYWKDIAIAQRGIIKFWDEFGYLSANWNQPPSSELRYKRRRAMEIPTTIQCDLCLKWRTLPFQLSSVEKDYPDTWVCSMNPDPEQDRCEASEQKQKVPLGTFRKDMKTQEEKQKQLTEKIRQQQEKLEALQKTTPIRSQADLKKLPLEVTTRPST
# Biological target: the molecule itself
# Assay: SEC
protein,measurement,value
B1,stoichiometry N,2
